From paper PMC2173740 (The Journal of Cell Biology, 2003)
Values joined by “and” are separate entries in the source; they are usually repeats but may differ in a detail not shown here. Identical values can stand only once.

What was measured:
[1] = molecular target: 86-kD fragment of Toc159 (pea (endogenous in pea chloroplast outer envelope)); experiment: subunit quantification by Coomassie staining
[2] = molecular target: 86-kD fragment of Toc159 (pea (endogenous in pea chloroplast outer envelope)); experiment: subunit quantification by radioactive NEM labelling of cysteines
[3] = molecular target: 86-kD fragment of Toc159 (pea (endogenous in pea chloroplast outer envelope)); experiment: subunit quantification by immunoblot
[4] = molecular target: T1, Toc75 (pea (endogenous in pea chloroplast …, UniProt Q43715 132-809)); experiment: co-sedimentation
T1 sequence (looked up): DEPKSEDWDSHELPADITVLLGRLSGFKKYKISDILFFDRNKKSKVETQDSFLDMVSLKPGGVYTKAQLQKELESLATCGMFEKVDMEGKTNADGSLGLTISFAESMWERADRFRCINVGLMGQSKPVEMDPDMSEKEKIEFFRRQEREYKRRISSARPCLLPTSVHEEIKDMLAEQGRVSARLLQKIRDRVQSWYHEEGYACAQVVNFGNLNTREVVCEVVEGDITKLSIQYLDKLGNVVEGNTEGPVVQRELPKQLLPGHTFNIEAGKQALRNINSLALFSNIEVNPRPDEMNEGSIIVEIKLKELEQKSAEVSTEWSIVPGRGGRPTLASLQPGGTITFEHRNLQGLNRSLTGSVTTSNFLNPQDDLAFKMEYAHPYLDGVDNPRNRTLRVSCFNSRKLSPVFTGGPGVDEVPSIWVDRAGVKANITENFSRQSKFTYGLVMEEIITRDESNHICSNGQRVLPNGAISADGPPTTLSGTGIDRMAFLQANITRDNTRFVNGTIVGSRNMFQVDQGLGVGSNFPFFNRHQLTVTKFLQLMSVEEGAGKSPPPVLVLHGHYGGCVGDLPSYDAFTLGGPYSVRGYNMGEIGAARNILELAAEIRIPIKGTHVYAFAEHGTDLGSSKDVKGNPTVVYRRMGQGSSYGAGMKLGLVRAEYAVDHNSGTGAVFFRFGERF

B1: Toc34 (natural protein, UniProt Q41009 1-310, looked up)
chain: MASQQQTVREWSGINTFAPATQTKLLELLGNLKQEDVNSLTILVMGKGGVGKSSTVNSIIGERVVSISPFQSEGPRPVMVSRSRAGFTLNIIDTPGLIEGGYINDMALNIIKSFLLDKTIDVLLYVDRLDAYRVDNLDKLVAKAITDSFGKGIWNKAIVALTHAQFSPPDGLPYDEFFSKRSEALLQVVRSGASLKKDAQASDIPVVLIENSGRCNKNDSDEKVLPNGIAWIPHLVQTITEVALNKSESIFVDKNLIDGPNPNQRGKLWIPLIFALQYLFLAKPIEALIRRDIATETKPAWETRDVGDRK
[1]
  stoichiometry N (molecules per Toc159): 4 to 6
[2]
  stoichiometry N (molecules per Toc159): 4 to 5
[3]
  stoichiometry N (molecules per Toc159): 4 and 6
[4]
  binding result: binds

B2: Toc75 (natural protein)
chain: DEPKSEDWDSHELPADITVLLGRLSGFKKYKISDILFFDRNKKSKVETQDSFLDMVSLKPGGVYTKAQLQKELESLATCGMFEKVDMEGKTNADGSLGLTISFAESMWERADRFRCINVGLMGQSKPVEMDPDMSEKEKIEFFRRQEREYKRRISSARPCLLPTSVHEEIKDMLAEQGRVSARLLQKIRDRVQSWYHEEGYACAQVVNFGNLNTREVVCEVVEGDITKLSIQYLDKLGNVVEGNTEGPVVQRELPKQLLPGHTFNIEAGKQALRNINSLALFSNIEVNPRPDEMNEGSIIVEIKLKELEQKSAEVSTEWSIVPGRGGRPTLASLQPGGTITFEHRNLQGLNRSLTGSVTTSNFLNPQDDLAFKMEYAHPYLDGVDNPRNRTLRVSCFNSRKLSPVFTGGPGVDEVPSIWVDRAGVKANITENFSRQSKFTYGLVMEEIITRDESNHICSNGQRVLPNGAISADGPPTTLSGTGIDRMAFLQANITRDNTRFVNGTIVGSRNMFQVDQGLGVGSNFPFFNRHQLTVTKFLQLMSVEEGAGKSPPPVLVLHGHYGGCVGDLPSYDAFTLGGPYSVRGYNMGEIGAARNILELAAEIRIPIKGTHVYAFAEHGTDLGSSKDVKGNPTVVYRRMGQGSSYGAGMKLGLVRAEYAVDHNSGTGAVFFRFGERF
[1]
  stoichiometry N (molecules per Toc159): 4
[2]
  stoichiometry N (molecules per Toc159): 4
[3]
  stoichiometry N (molecules per Toc159): 4 to 5
